Source: PMC3240820 (Structure (London, England : 1993), 2011)
Where two headings read alike, the source gives them in different places. One block for each binder: values may come before it.

How the values were obtained:
Caskin1 CID-2SAMs G520E = Caskin1 CID-2SAMs G520E (human, UniProt Q8WXD9 375-605, G520E); experiment: SEC
[1] = biological target: T1, CaMK domain of CASK (CASK310), residues 1-310 (UniProt O14936 1-310); experiment: co-precipitation on dialysis into low salt
T1 sequence (looked up): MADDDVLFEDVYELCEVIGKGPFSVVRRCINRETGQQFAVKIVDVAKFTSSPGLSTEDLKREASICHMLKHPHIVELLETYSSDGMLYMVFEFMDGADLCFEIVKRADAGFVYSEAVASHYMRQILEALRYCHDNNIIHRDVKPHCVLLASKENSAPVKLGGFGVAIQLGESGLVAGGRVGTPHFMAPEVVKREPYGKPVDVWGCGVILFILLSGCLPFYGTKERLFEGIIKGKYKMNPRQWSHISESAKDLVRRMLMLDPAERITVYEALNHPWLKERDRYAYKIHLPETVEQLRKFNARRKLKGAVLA

[2] = biological target: the molecule itself
crystal structure = biological target: the molecule itself; experiment: crystal structure

Chain of Caskin1 CID-2SAMs G520E (Q8WXD9 375-605 G520E): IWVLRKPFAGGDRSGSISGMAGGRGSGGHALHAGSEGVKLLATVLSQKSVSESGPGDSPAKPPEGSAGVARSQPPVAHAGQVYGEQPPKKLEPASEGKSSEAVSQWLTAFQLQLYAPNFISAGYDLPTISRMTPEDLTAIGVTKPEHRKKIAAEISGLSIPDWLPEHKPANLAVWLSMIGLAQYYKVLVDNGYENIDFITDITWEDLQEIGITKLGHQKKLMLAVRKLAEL

B3: Caskin1 SAMs (E470-G615) with the His-tag removed (domain or fragment)
chain: not shown
binding result [2]: binds

B4: Caskin1 6His-(E470-G615) (domain or fragment)
chain: not shown
binding result (crystal structure): binds

Continued, values first:

binding result (Caskin1 CID-2SAMs G520E): binds
B1: Caskin1 CID-2SAMs G566K (domain or fragment)
chain: not shown

binding result [1]: binds
B2: Caskin1 CID-2SAMs (residues 375-605) (domain or fragment)
chain: not shown
